The values that follow come from article PMC4587089, “Molecular cloning of AtRS4, a seed specific multifunctional RFO synthase/galactosylhydrolase in Arabidopsis thaliana” (Frontiers in Plant Science, 2015).

Common to all, as to assay type: biochemical, Arabidopsis thaliana
Substrate in series [1]: OC[C@H]1O[C@H](OC[C@H]2O[C@H](OC[C@H]3O[C@H](O[C@]4(CO)O[C@H](CO)[C@@H](O)[C@@H]4O)[C@H](O)[C@@H](O)[C@@H]3O)[C@H](O)[C@@H](O)[C@H]2O)[C@H](O)[C@@H](O)[C@H]1O
Kind of series: HPAEC-PAD, raffinose formation. The conditions noted are these: galactosylhydrolase reaction, stachyose alone, range 50 to 1,200 μM, 25 mM K-phosphate pH 7, 25°C, 60 min.

Substrate in series [2]: OC[C@H]1O[C@H](OC[C@H]2O[C@H](O[C@]3(CO)O[C@H](CO)[C@@H](O)[C@@H]3O)[C@H](O)[C@@H](O)[C@@H]2O)[C@H](O)[C@@H](O)[C@H]1O
Briefly: HPAEC-PAD, stachyose formation. The note with it: stachyose synthase reaction, galactosyl acceptor, co-substrate galactinol (standard assay 100 μM), 25 mM K-phosphate pH 7, 25°C, 60 min.

Substrate in series [3]: OC[C@H]1O[C@H](O[C@@H]2[C@@H](O)[C@H](O)[C@@H](O)[C@H](O)[C@@H]2O)[C@H](O)[C@@H](O)[C@H]1O
Kind of series: HPAEC-PAD, stachyose formation. The note with it: stachyose synthase reaction, galactosyl donor, co-substrate raffinose (standard assay 400 μM), range 50 to 1,200 μM, 25 mM K-phosphate pH 7, 25°C, 60 min.

B1: AtRS4 (AtSTS, AtStaS, At4g01970) (Arabidopsis thaliana) (protein)
chain: MAPLHESLSSINDVIESKPLFVPITKPILQPNSFNLSEGSLCAKDSTPILFDVPQNVTFTPFSSHSISTDAPLPILLRVQANAHKGGFLGFTKESPSDRLTNSLGRFEDREFLSLFRFKMWWSTAWIGKSGSDLQAETQWVMLKIPEIDSYVAIIPTIEGAFRASLTPGEKGNVLICAESGSTKVKESSFKSIAYIHICDNPYNLMKEAFSALRVHMNTFKLLEEKKLPKIVDKFGWCTWDACYLTVDPATIWTGVKEFEDGGVCPKFVIIDDGWQSINFDGDELDKDAENLVLGGEQMTARLTSFKECKKFRNYKGGSFITSDASHFNPLKPKMLIYKATERIQAIILRRKLVKESGEQDLTELDEKIKILSEELNAMFDEVEKEESLGSDDVSGSGMAAFTKDLRLRFKSLDDIYVWHALCGAWNGVRPETMMDLKAKVAPFELSPSLGATMADLAVDKVVEAGIGLVHPSKAHEFYDSMHSYLASVGVTGAKIDVFQTLESLAEEHGGRVELAKAYYDGLTESMIKNFNGTDVIASMQQCNEFFFLATKQISIGRVGDDFWWQDPYGDPQGVYWLQGVHMIHCSYNSIWMGQMIQPDWDMFQSDHVCAEYHAASRAICGGPVYLSDHLGKASHNFDLIKKLAFFDGTIPRCVHYALPTRDSLFKNPLFDKESILKIFNFNKFGGVIGTFNCQGAGWSPEEHRFKGYKECYTTVSGTVHVSDIEWDQNPEAAGSQVTYTGDYLVYKQQSEEILFMNSKSEAMKITLEPSAFDLLSFVPVTELVSSGVRFAPLGLINMFNCVGTVQDMKVTGDNSIRVDVKGEGRFMAYSSSAPVKCYLNDKEAEFKWEEETGKLSFFVPWVEESGGISHLSFTF
Broadly, the Km is the concentration of substrate that gives half-maximal velocity. Take B1: the Michaelis constant (Km) was 1,059 ± 269.3 μM in series [1], 259.2 ± 21.15 µM in series [2] and 1,170 ± 246.8 μM in series [3].
